Residue numbers refer to the chain shown, from its start. Names may count otherwise. “And” between values parts separate entries of the source, which are not always exact repeats. Equal entries are not always repeated.
B1: AnxA2 77RRTKK>AATAA (HA-tagged) (other)
chain: MSTVHEILCKLSLEGDHSTPPSAYGSVKAYTNFDAERDALNIETAIKTKGVDEVTIVNILTNRSNAQRQDIAFAYQAATAAELASALKSALSGHLETVILGLLKTPAQYDASELKASMKGLGTDEDSLIEIICSRTNQELQEINRVYKEMYKTDLEKDIISDTSGDFRKLMVALAKGRRAEDGSVIDYELIDQDARDLYDAGVKRKGTDVPKWISIMTERSVPHLQKVFDRYKSYSPYDMLESIRKEVKGDLENAFLNLVQCIQNKPLYFADRLYDSMKGKGTRDKVLIRIMVSRSEVDMLKIRSEFKRKYGKSLYYYIQQDTKGDYQKALLYLCGGDDYPYDVPDYA
notes: also called 77AATAA81
B2: AnxA2 Δ37-66-HA (other)
chain: MSTVHEILCKLSLEGDHSTPPSAYGSVKAYTNFDAEQRQDIAFAYQRRTKKELASALKSALSGHLETVILGLLKTPAQYDASELKASMKGLGTDEDSLIEIICSRTNQELQEINRVYKEMYKTDLEKDIISDTSGDFRKLMVALAKGRRAEDGSVIDYELIDQDARDLYDAGVKRKGTDVPKWISIMTERSVPHLQKVFDRYKSYSPYDMLESIRKEVKGDLENAFLNLVQCIQNKPLYFADRLYDSMKGKGTRDKVLIRIMVSRSEVDMLKIRSEFKRKYGKSLYYYIQQDTKGDYQKALLYLCGGDDYPYDVPDYA
B3: AnxA2 Δ49-61-HA (other)
chain: MSTVHEILCKLSLEGDHSTPPSAYGSVKAYTNFDAERDALNIETAIKTNRSNAQRQDIAFAYQRRTKKELASALKSALSGHLETVILGLLKTPAQYDASELKASMKGLGTDEDSLIEIICSRTNQELQEINRVYKEMYKTDLEKDIISDTSGDFRKLMVALAKGRRAEDGSVIDYELIDQDARDLYDAGVKRKGTDVPKWISIMTERSVPHLQKVFDRYKSYSPYDMLESIRKEVKGDLENAFLNLVQCIQNKPLYFADRLYDSMKGKGTRDKVLIRIMVSRSEVDMLKIRSEFKRKYGKSLYYYIQQDTKGDYQKALLYLCGGDDYPYDVPDYA
B4: AnxA2 77RRTKK>AATAK (HA-tagged) (other)
chain: B1 chain with A81K
notes: also called 77AATAK81
B5: AnxA2 Δ37-48-HA (other)
chain: MSTVHEILCKLSLEGDHSTPPSAYGSVKAYTNFDAEKGVDEVTIVNILTNRSNAQRQDIAFAYQRRTKKELASALKSALSGHLETVILGLLKTPAQYDASELKASMKGLGTDEDSLIEIICSRTNQELQEINRVYKEMYKTDLEKDIISDTSGDFRKLMVALAKGRRAEDGSVIDYELIDQDARDLYDAGVKRKGTDVPKWISIMTERSVPHLQKVFDRYKSYSPYDMLESIRKEVKGDLENAFLNLVQCIQNKPLYFADRLYDSMKGKGTRDKVLIRIMVSRSEVDMLKIRSEFKRKYGKSLYYYIQQDTKGDYQKALLYLCGGDDYPYDVPDYA
B6: AnxA2 ΔR1-HA (deletion of aa 37-108) (other)
chain: MSTVHEILCKLSLEGDHSTPPSAYGSVKAYTNFDAEYDASELKASMKGLGTDEDSLIEIICSRTNQELQEINRVYKEMYKTDLEKDIISDTSGDFRKLMVALAKGRRAEDGSVIDYELIDQDARDLYDAGVKRKGTDVPKWISIMTERSVPHLQKVFDRYKSYSPYDMLESIRKEVKGDLENAFLNLVQCIQNKPLYFADRLYDSMKGKGTRDKVLIRIMVSRSEVDMLKIRSEFKRKYGKSLYYYIQQDTKGDYQKALLYLCGGDDYPYDVPDYA
notes: also called Δ37-108 (R1)
B7: AnxA2 Δ25-36-HA (other)
chain: MSTVHEILCKLSLEGDHSTPPSAYRDALNIETAIKTKGVDEVTIVNILTNRSNAQRQDIAFAYQRRTKKELASALKSALSGHLETVILGLLKTPAQYDASELKASMKGLGTDEDSLIEIICSRTNQELQEINRVYKEMYKTDLEKDIISDTSGDFRKLMVALAKGRRAEDGSVIDYELIDQDARDLYDAGVKRKGTDVPKWISIMTERSVPHLQKVFDRYKSYSPYDMLESIRKEVKGDLENAFLNLVQCIQNKPLYFADRLYDSMKGKGTRDKVLIRIMVSRSEVDMLKIRSEFKRKYGKSLYYYIQQDTKGDYQKALLYLCGGDDYPYDVPDYA
B8: AnxA2 Δ62-75-HA (other)
chain: MSTVHEILCKLSLEGDHSTPPSAYGSVKAYTNFDAERDALNIETAIKTKGVDEVTIVNILTQRRTKKELASALKSALSGHLETVILGLLKTPAQYDASELKASMKGLGTDEDSLIEIICSRTNQELQEINRVYKEMYKTDLEKDIISDTSGDFRKLMVALAKGRRAEDGSVIDYELIDQDARDLYDAGVKRKGTDVPKWISIMTERSVPHLQKVFDRYKSYSPYDMLESIRKEVKGDLENAFLNLVQCIQNKPLYFADRLYDSMKGKGTRDKVLIRIMVSRSEVDMLKIRSEFKRKYGKSLYYYIQQDTKGDYQKALLYLCGGDDYPYDVPDYA
B9: AnxA2 ΔR4-HA (deletion of aa 269-339) (other)
chain: MSTVHEILCKLSLEGDHSTPPSAYGSVKAYTNFDAERDALNIETAIKTKGVDEVTIVNILTNRSNAQRQDIAFAYQRRTKKELASALKSALSGHLETVILGLLKTPAQYDASELKASMKGLGTDEDSLIEIICSRTNQELQEINRVYKEMYKTDLEKDIISDTSGDFRKLMVALAKGRRAEDGSVIDYELIDQDARDLYDAGVKRKGTDVPKWISIMTERSVPHLQKVFDRYKSYSPYDMLESIRKEVKGDLENAFLNLVQCIQNKPLYPYDVPDYA
notes: also called Δ269-339 (R4)
B10: AnxA2 80KKELA>GKPLD (HA-tagged) (other)
chain: B1 chain with A77R, A78R, A80G, A81K, E82P, A84D
notes: also called 80KKELA84 replaced with AnxA1 loop 89GKPLD93
B11: AnxA2 Δ102-108-HA (other)
chain: MSTVHEILCKLSLEGDHSTPPSAYGSVKAYTNFDAERDALNIETAIKTKGVDEVTIVNILTNRSNAQRQDIAFAYQRRTKKELASALKSALSGHLETVILGYDASELKASMKGLGTDEDSLIEIICSRTNQELQEINRVYKEMYKTDLEKDIISDTSGDFRKLMVALAKGRRAEDGSVIDYELIDQDARDLYDAGVKRKGTDVPKWISIMTERSVPHLQKVFDRYKSYSPYDMLESIRKEVKGDLENAFLNLVQCIQNKPLYFADRLYDSMKGKGTRDKVLIRIMVSRSEVDMLKIRSEFKRKYGKSLYYYIQQDTKGDYQKALLYLCGGDDYPYDVPDYA
B12: AnxA2 77…>77AATAAELASALA (HA-tagged) (other)
chain: B1 chain with K88A
B13: AnxA2 ΔR3-HA (deletion of aa 193-268) (other)
chain: MSTVHEILCKLSLEGDHSTPPSAYGSVKAYTNFDAERDALNIETAIKTKGVDEVTIVNILTNRSNAQRQDIAFAYQRRTKKELASALKSALSGHLETVILGLLKTPAQYDASELKASMKGLGTDEDSLIEIICSRTNQELQEINRVYKEMYKTDLEKDIISDTSGDFRKLMVALAKGRRAEDGSVIDYELIDYFADRLYDSMKGKGTRDKVLIRIMVSRSEVDMLKIRSEFKRKYGKSLYYYIQQDTKGDYQKALLYLCGGDDYPYDVPDYA
notes: also called Δ193-268 (R3)
B14: AnxA2 Δ82-88-HA (other)
chain: MSTVHEILCKLSLEGDHSTPPSAYGSVKAYTNFDAERDALNIETAIKTKGVDEVTIVNILTNRSNAQRQDIAFAYQRRTKKSALSGHLETVILGLLKTPAQYDASELKASMKGLGTDEDSLIEIICSRTNQELQEINRVYKEMYKTDLEKDIISDTSGDFRKLMVALAKGRRAEDGSVIDYELIDQDARDLYDAGVKRKGTDVPKWISIMTERSVPHLQKVFDRYKSYSPYDMLESIRKEVKGDLENAFLNLVQCIQNKPLYFADRLYDSMKGKGTRDKVLIRIMVSRSEVDMLKIRSEFKRKYGKSLYYYIQQDTKGDYQKALLYLCGGDDYPYDVPDYA
B15: AnxA2 ΔR2-HA (deletion of aa 109-192) (other)
chain: MSTVHEILCKLSLEGDHSTPPSAYGSVKAYTNFDAERDALNIETAIKTKGVDEVTIVNILTNRSNAQRQDIAFAYQRRTKKELASALKSALSGHLETVILGLLKTPAQQDARDLYDAGVKRKGTDVPKWISIMTERSVPHLQKVFDRYKSYSPYDMLESIRKEVKGDLENAFLNLVQCIQNKPLYFADRLYDSMKGKGTRDKVLIRIMVSRSEVDMLKIRSEFKRKYGKSLYYYIQQDTKGDYQKALLYLCGGDDYPYDVPDYA
notes: also called Δ109-192 (R2)
B16: AnxA2 Δ89-101-HA (other)
chain: MSTVHEILCKLSLEGDHSTPPSAYGSVKAYTNFDAERDALNIETAIKTKGVDEVTIVNILTNRSNAQRQDIAFAYQRRTKKELASALKLLKTPAQYDASELKASMKGLGTDEDSLIEIICSRTNQELQEINRVYKEMYKTDLEKDIISDTSGDFRKLMVALAKGRRAEDGSVIDYELIDQDARDLYDAGVKRKGTDVPKWISIMTERSVPHLQKVFDRYKSYSPYDMLESIRKEVKGDLENAFLNLVQCIQNKPLYFADRLYDSMKGKGTRDKVLIRIMVSRSEVDMLKIRSEFKRKYGKSLYYYIQQDTKGDYQKALLYLCGGDDYPYDVPDYA
B17: AnxA2 Δ74-88-HA (other)
chain: MSTVHEILCKLSLEGDHSTPPSAYGSVKAYTNFDAERDALNIETAIKTKGVDEVTIVNILTNRSNAQRQDIAFSALSGHLETVILGLLKTPAQYDASELKASMKGLGTDEDSLIEIICSRTNQELQEINRVYKEMYKTDLEKDIISDTSGDFRKLMVALAKGRRAEDGSVIDYELIDQDARDLYDAGVKRKGTDVPKWISIMTERSVPHLQKVFDRYKSYSPYDMLESIRKEVKGDLENAFLNLVQCIQNKPLYFADRLYDSMKGKGTRDKVLIRIMVSRSEVDMLKIRSEFKRKYGKSLYYYIQQDTKGDYQKALLYLCGGDDYPYDVPDYA
B18: AnxA2 K28S+D34N+E36S (HA-tagged) (other)
chain: B1 chain with K28S, D34N, E36S, A77R, A78R, A80K, A81K
B19: peptide No 896970 (73-mer AnxA2 R1 peptide extending from amino acids 25 to 97) (peptide)
peptide: GSVKAYTNFDAERDALNIETAIKTKGVDEVTIVNILTNRSNAQRQDIAFAYQRRTKKELASALKSALSGHLET
notes: also called AnxA2 25-97 peptide

molecular target: T1, PCSK9-V5 (full-length human PCSK9 with C-terminal V5 tag) (human, UniProt Q8NBP7 31-692); assay: Far Western blot of HEK293 lysates
T1 construct: Used as conditioned medium of CHO-K1 cells (Far Western, pull-down) or co-expressed in cells (co-IP); The background says PCSK9 is secreted as a prosegment-PCSK9 heterodimer; also called full-length (FL) PCSK9-V5; native PCSK9; not shown: C-terminal V5 tag

binding result | Binder
no binding | B1
no binding | B2
no binding | B3
no binding | B4
no binding | B5
no binding | B6
no binding | B7
no binding | B8
binds | B9
binds | B10
no binding | B11
no binding | B12
binds | B13
no binding | B14
binds | B15
no binding | B16
no binding | B17
binds | B18

molecular target: T2, purified biotin-conjugated PCSK9 (UniProt Q8NBP7 31-692, limits assumed, biotin-conjugated (site not stated)); assay: AlphaScreen competition of biotin-PCSK9 binding to His6-LDLR ectodomain
T2 construct: Coated on streptavidin donor beads; also called PCSK9 (AlphaScreen donor beads)
Description: AlphaScreen® (Perkin Elmer) streptavidin donor beads were coated with purified biotin-conjugated PCSK9 and AlphaScreen® nickel chelate acceptor beads were coated with purified His6-conjugated LDLR ectodomain. Competition in the AlphaScreen® PCSK9-LDLR interaction assay was measured, in the presence of increasing concentrations of AnxA2-derived peptides, as a reduction of fluorescence.

IC50 | Binder
500 nM to 1 µM (2×) and 750 nM | B19
